From patent US20250313611A1 (VIB VZW, published 2025) come the findings set out here.

Positions count from the first letter of the chain named.

For assay [1], the target named is T1, SARS-COV-2 RBD (His-tagged, Sinobiologicals) (SARS-CoV-2 (Wuhan), UniProt P0DTC2 319-541). Kind of assay: ELISA, coated antigen, dilution series, OD450 [1/3]. In general terms: ELISA stands for enzyme-linked immunosorbent assay.
For assay [2], the target named is T2, MERS-COV spike expressed on transfected cells (MERS-CoV, UniProt K9N5Q8 18-1353).
T2 sequence: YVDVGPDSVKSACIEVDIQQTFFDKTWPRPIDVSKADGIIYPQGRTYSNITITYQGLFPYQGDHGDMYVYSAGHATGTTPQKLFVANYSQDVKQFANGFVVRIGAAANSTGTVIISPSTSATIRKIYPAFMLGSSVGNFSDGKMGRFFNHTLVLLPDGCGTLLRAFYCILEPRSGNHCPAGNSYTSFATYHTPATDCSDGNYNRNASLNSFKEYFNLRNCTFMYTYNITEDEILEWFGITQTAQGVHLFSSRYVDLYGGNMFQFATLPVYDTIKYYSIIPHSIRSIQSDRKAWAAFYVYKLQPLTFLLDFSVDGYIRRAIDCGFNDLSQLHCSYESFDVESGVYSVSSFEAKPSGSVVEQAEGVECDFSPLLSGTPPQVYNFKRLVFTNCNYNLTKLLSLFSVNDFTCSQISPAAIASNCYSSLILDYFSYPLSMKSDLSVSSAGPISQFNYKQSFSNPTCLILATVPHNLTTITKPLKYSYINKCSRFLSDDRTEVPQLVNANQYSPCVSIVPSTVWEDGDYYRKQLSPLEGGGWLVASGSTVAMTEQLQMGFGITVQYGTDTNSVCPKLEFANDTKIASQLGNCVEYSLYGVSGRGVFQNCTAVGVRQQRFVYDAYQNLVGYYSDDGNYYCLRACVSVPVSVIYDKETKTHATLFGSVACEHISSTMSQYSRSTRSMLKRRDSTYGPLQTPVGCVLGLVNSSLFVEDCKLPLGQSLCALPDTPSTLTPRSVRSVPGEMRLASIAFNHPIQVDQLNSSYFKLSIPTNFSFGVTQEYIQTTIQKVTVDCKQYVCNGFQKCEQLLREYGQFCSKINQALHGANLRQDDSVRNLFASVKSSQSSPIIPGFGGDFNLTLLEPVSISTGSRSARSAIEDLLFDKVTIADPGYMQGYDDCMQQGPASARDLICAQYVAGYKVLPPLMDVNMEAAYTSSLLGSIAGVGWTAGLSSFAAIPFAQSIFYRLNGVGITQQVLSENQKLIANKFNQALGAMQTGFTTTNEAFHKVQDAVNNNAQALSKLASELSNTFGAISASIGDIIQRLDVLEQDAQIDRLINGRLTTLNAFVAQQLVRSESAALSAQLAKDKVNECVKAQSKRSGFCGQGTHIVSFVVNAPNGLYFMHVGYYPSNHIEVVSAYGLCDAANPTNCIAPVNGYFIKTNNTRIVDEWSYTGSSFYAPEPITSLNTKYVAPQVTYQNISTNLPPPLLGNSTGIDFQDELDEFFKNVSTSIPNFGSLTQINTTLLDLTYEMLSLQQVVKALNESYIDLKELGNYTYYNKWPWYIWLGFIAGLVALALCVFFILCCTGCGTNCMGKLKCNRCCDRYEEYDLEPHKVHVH
Briefly: flow cytometry, transfected HEK cells, MFI GFP+/GFP- cells [2/3].

Assay [3] has as its target T3, BSA (bovine, UniProt P02769).
T3 construct: coated control antigen
Briefly: ELISA, coated BSA, dilution series, OD450 [2/3].

Assay [4] has as its target T1, SARS-COV-2 RBD (His-tagged, …). Kind of assay: ELISA, periplasmic extract 1/10, OD450 antigen/OD450 BSA [B].
Assay [5] deals with T2, MERS-COV spike expressed on transfected …. Kind of assay: flow cytometry, transfected HEK cells, MFI GFP+/GFP- cells [1/3]. (Flow cytometry measures light scatter and fluorescence of single cells or particles in a stream.)
For assay [6] the target is unchanged. Briefly: flow cytometry, transfected HEK cells, MFI GFP+/GFP- cells [3/3].
In assay [7] the target is T1, SARS-COV-2 RBD (His-tagged, …). Briefly: ELISA, periplasmic extract 1/10, OD450 antigen/OD450 BSA [D00002 FIG. 1 cont. D].
Assay [8] has the same target. The description is as above. This is another data set of the same source.
Assay [9] addresses T3, BSA. Kind of assay: ELISA, coated BSA, dilution series, OD450 [3/3].
Assay [10] concerns the target T1, SARS-COV-2 RBD (His-tagged, …). Briefly: ELISA, coated antigen, dilution series, OD450 [3/3].

T3 sequence (P02769 25-607 limits assumed): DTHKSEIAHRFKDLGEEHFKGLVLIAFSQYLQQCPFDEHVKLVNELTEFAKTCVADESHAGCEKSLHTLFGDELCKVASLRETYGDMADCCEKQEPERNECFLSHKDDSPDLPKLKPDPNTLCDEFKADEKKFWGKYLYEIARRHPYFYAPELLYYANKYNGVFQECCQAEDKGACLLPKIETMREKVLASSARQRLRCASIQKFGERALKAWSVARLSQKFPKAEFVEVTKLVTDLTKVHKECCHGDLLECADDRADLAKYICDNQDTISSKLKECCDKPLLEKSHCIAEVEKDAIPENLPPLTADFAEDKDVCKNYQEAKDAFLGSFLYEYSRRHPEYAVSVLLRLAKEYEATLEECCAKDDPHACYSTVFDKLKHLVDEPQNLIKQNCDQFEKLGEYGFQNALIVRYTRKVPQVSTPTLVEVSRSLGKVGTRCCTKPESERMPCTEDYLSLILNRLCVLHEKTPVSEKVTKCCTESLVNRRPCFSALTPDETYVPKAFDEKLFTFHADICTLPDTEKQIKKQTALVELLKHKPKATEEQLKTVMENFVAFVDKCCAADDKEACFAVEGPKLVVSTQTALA

B1: VHH R3_DC23 (VHH)
VHH: QVQLQESGGGLVQAGDSLTLSCAVSGRIFSTYTMGWFRQAPGKEREFVAAVRWGAGTIYYADSMKGRFTISRDSAKNTVDLQMNSTKPEDTAVYYCGAAYVSKANYGSLWYQDSRRYDYWGQGTQVTVSS
B1: the figures for the binding result in assay [1] and in assay [2] were “no binding (tested: 10 µg/ml)” and “no binding (tested: not given)”, respectively.

B2: VHH R3_C4 (VHH)
VHH: QVQLQESGGGLVQAGDSLRLSCAVSGRPFSTYTMGWFRQAPGKEREFVAAMRWSGGTIYYADSVKGRFTISRDNDKNTVNLEMNSLKPEDTAVYYCAAAYVSKANYGSLWYRASGLYDYWGQGTQVTVSS
For B2, the binding result is reported as “no binding (tested: 10 µg/ml)” in the assay with BSA [3]; “no binding (tested: extract 1/10, concentration not given)” in assay [4]; “no binding (tested: not given)” in [5].

B3: VHH R4_DC16 (VHH)
VHH: B2 VHH with D75A, K76Q, E82Q, L109S, A113N
As for B3, the binding result is listed as “no binding (tested: 10 µg/ml)” in the assay with BSA [3]; “no binding (tested: not given)” in [6]; “no binding (tested: extract 1/10, concentration not given)” in assay [7].

B4: VHH R3_DC20 (VHH)
VHH: B2 VHH with D75A, K76Q, E82Q, K87E, A113N
Consider B4, for which, in [5], the binding result is reported as “no binding (tested: not given)”.

B5: VHH R4_DC13 (VHH)
VHH: B2 VHH with A14T, A50S, I58V, A61S, E82Q, S85N, L109F, A113N, G115D
Regarding B5, the binding result is “no binding (tested: 10 µg/ml)” in the assay with BSA [3]; “no binding (tested: not given)” in assay [2]; “no binding (tested: extract 1/10, concentration not given)” in assay [8].

B6: VHH R4_DC9 (VHH)
VHH: QVQLQESGGGLVQAGDSLRLSCAASGRIFSTYTMGWFRQAPGMEREFVAAIRWSGSTVYYADSVKGRFTISRDNAKNTVYLQMNSLKPEDTAVYYCAAARVSKANYGTLWYRASGLYDYWGQGTQVTVSS
With B6, the results for the binding result (in the assay with BSA [9]; in [10]; in assay [2]) were “no binding (tested: 10 µg/ml)”, “no binding (tested: 10 µg/ml)” and “no binding (tested: not given)”, respectively.

B7: VHH R4_DC20 (VHH)
VHH: B2 VHH with A14T, A50S, I58M, Y59N, K76Q, E82Q, A113N
In the case of B7, the binding result in assay [1] is on record as “no binding (tested: 10 µg/ml)”; in assay [6], “no binding (tested: not given)”.

B8: VHH R3_DC9 (VHH)
VHH: B2 VHH with A14T, A50S, I58M, A61S, E82Q, A113N
Consider B8, for which, in assay [5], the binding result is listed as “no binding (tested: not given)”.

B9: VHH R3_DC2 (VHH)
VHH: B2 VHH with A14T, A50S, I58K, A61S, T69S, K76Q, E82Q, A113N
With B9, the binding result in the assay with BSA [3] is “no binding (tested: 10 µg/ml)”; in [5] it was “no binding (tested: not given)”.

B10: VHH R4_DC6 (VHH)
VHH: QVQLQESGGGLVQAGDSLRLSCAASGRILSTFTMGWFRQAPGKEREFVAAMRWNGGTKNYADSVKGRFTISRDNANSVVYLQMNSTKPEDTAVYYCAAAYVSKANYGSLWYRTPSLYDYWGQGTQVTVSS
On to B10, for which the binding result with BSA [9] was “no binding (tested: 10 µg/ml)”; in assay [10] it was “no binding (tested: 10 µg/ml)”; in [2] it was “no binding (tested: not given)”.
